# Numbered stars: 1 amine (or outer) side, 2 acyl side, 3 side chain; on linkers, the order of the positions; unused ones are H or OH. Square brackets hold non-standard residues; d marks the D form. Ends that are not written are not given here. * marks the point of attachment. (AUD)6 = six aminoundecanoic acid units between the two peptides, O=C(CCCCCCCCCCNC(=O)CCCCCCCCCCNC(=O)CCCCCCCCCCN[*:1])NCCCCCCCCCCC(=O)NCCCCCCCCCCC(=O)NCCCCCCCCCCC(=O)[*:2]; Biotin = O=C1N[C@H]2[C@H](CS[C@H]2CCCCC(=O)*)N1; P10 = 10 unit polyethylene glycol polymer; Myristoyl = CCCCCCCCCCCCCC(=O)*; Lauroyl = CCCCCCCCCCCC(=O)*; linker = not defined here; (MP)2 = not defined here; Aun = NCCCCCCCCCCC(=O)O; AEEA = NCCOCCOCC(=O)O
# T1: GDF-7 (R&D SYSTEMS)
# T1 sequence (Q7Z4P5 322-450, species assumed, looked up): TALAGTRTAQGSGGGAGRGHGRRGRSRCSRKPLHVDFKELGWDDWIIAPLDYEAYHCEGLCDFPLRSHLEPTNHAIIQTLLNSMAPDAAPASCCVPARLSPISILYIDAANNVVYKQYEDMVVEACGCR
# B1: SEQ ID NO 149 (peptide)
# peptide: [code s][code s]GGVGGWALFETLRGKEV[code s][code r][P10]YFRAFRKFVKPFKRAFKGSSGK(Biotin)-NH2
# modifications: not fully specified; printed as ssGGVGGWALFETLRGKEVsr-P10-YFRAFRKFVKPFKRAFK-GSSGK-B-NH2
# B2: SEQ ID NO 150 (peptide)
# peptide: SWWGFWNGSAAPVWSRGSSG[code s][code s]GGVGGWALFETLRGKEV[code s][code r]GSSGK(Biotin)-NH2
# modifications: not fully specified; printed as SWWGFWNGSAAPVWSR-GSSG-ssGGVGGWALFETLRGKEVsr-GSSGK-B-NH2
# B3: SEQ ID NO 153 (peptide)
# peptide: [code s][code s]GGVGGWALFETLRGKEV[code s][code r][P10]SWWGFWNGSAAPVWSRGSSGK(Biotin)-NH2
# modifications: not fully specified; printed as ssGGVGGWALFETLRGKEVsr-P10-SWWGFWNGSAAPVWSR-GSSGK-B-NH2
# B4: SEQ ID NO 147 (peptide)
# peptide: YFRAFRKFVKPFKRAFK[(MP)2][code s][code s]GGVGGWALFETLRGKEV[code s][code r]GSSGK(Biotin)-NH2
# modifications: not fully specified; printed as YFRAFRKFVKPFKRAFK-(MP)2-ssGGVGGWALFETLRGKEVsr-GSSGK-B-NH2; reading uncertain
# Tested on: not given
# Experiment: not given
# Format: binding
# Settings: 18 hour incubation in 10% BSA+10 mM guanidinium chloride; FIG. 1
# Excerpt: In this example, illustrated are unexpected beneficial properties of the composition of the invention, including but not limited to, one or more improved biophysical properties. Such one or more unexpected beneficial properties of a composition of the invention may comprise an increase in stability. An increase in stability may comprise any one or more of resistance to chemical denaturation, resistance to proteolytic degradation, improved retention to a substrate (e.g., resistance to being competed off a substrate to which it is bound, such as by proteins or other biomolecules found in body tissues). Thus, to ascertain a beneficial property of a composition of the invention, it is compared to the properties of a component of the composition-namely, a substrate-binding peptide by itself (e.g., without fatty acid covalently coupled thereto). An assay was developed that, from our direct comparisons (see, e.g., discussion of FIG. 2 below, and Example 7 herein), mimicked the effect of incubation of substrate-binding peptide with human plasma on stability of binding of a substrate-binding peptide to its substrate. The assay utilized incubations in the presence of 10% bovine serum album (BSA) with 10 mM guanidinium chloride. The high BSA concentration mimics the elevated albumin content of human plasma, and the guanidinium chloride is used to compete with any charged interactions involved in binding of the substrate-binding peptide to its substrate.
# In this assay, two immunoassay plates were prepared for a “side-by-side” comparison of binding of a test sample (substrate-binding peptide or composition of the invention) to its substrate with or without the presence of 10% BSA with 10 mM guanidinium chloride. The wells of each 96-well polypropylene plate were incubated with 350 μl BSA 1% in PBS for 30 minutes at 20° C. with 500 rpm shaking. To each well was added one acetone-cleaned 3/32″ 316LVM stainless steel bead, followed by addition of dilutions in PBS of the test sample in a range of concentrations starting from 10 μM. Final volume in each well was 200 μl. The plates were incubated for 1 hour at 20° C. with 500 rpm shaking to allow for the binding to occur. The beads were washed 3 times with 250 μl PBS using a plate washer. […]
# In the immunoassay for detecting binding without the presence of 10% BSA with 10 mM guanidinium chloride, added to each well was 200 μl of streptavidin AP (AP is alkaline phosphatase) at 1/200 in TBS+1% BSA. […] When color has developed, each well was read at OD405 nm in endpoint mode using a plate reader. […] When color has developed, the wells were read at OD405 nm in endpoint mode using a plate reader. […]
row,Molecule,retention of binding compared to substrate-binding peptide alone (SEQ ID NO:122)
1,"119: Fmoc-NH-(PEG)27-CO2H covalently coupled to a peptide having the amino acid sequence of SEQ ID NO:122 (PEGylated peptide) (SSHRTNHKKNNPKKKNKTRGSSGK; also: Fmoc-NH-(PEG)27-CO2H covalently coupled, site not given here) [Compound 119]",failed to promote retention
2,120: amino acid sequence YWAWAYAW (SEQ ID NO:129) covalently coupled to a peptide having the amino acid sequence of SEQ ID NO:122 (YWAWAYAWSSHRTNHKKNNPKKKNKTRGSSGK) [Compound 120],failed to promote retention
3,AUD-AUD-AUD-AUD-SEQ ID NO:122 ([Aun][Aun][Aun][Aun]SSHRTNHKKNNPKKKNKTRGSSGK) [Compound 122],significantly improved retention

# Tested on: not listed separately
# Experiment: Vancomycin loading onto titanium bead (HPLC of HCl eluate)
# Settings: mixture with vancomycin, 30 mins 20° C., washed with PBS
# Procedure: The experimental procedure used for the embodiments described above was as follows. […] All three components were mixed and then applied to the metal bead. […] All three components were mixed and then applied to the metal bead. […] The mixtures were applied to the metal beads and incubated for 30 mins at 20° C. with 700 rpm shaking. The beads were washed three times with 350 ul PBS. Beads were analyzed as follows: 200 ul of 100 mM HCl was added to each bead and incubated for 30 mins at 20° C. with 1,000 rpm shaking. The eluate from each bead was analyzed by HPLC using Phenomenex Luna 3 um column, 50×4.60 mm. Output was compared to a standard curve for vancomycin to determine the amount of vancomycin retained onto the metal bead.
row,Molecule,Vancomycin Load
1,MA-AHx-SSCLIDIYGVCHNFDAY-miniPeg-miniPeg-YFRAFRKFVKPFKRAFKGSSK(Biotin) [SEQ ID NO: 165],"1,700 pmol/cm2"
2,MA-Ahx-SSCLIDIYGVCHNFDAY-miniPeg-miniPeg-HKKNNPKKKNKTRGSSK(Biotin) [SEQ ID NO: 164],278 pmol/cm2
3,Pyrene-butyric-SSCLIDIYGVCHNFDAY-miniPeg-miniPeg-HKKNNPKKKNKTRGSS-K(Biotin) [SEQ ID NO: 166],173 pmol/cm2
4,RRRRRRR-PSSHRTNHKKNNPKKKNKTRGP-RRRRRRR-K(biotin) [SEQ ID NO: 156],<10 pmol/cm2
5,SSSCLIDMYGVCHNFDGAYDSSRG-miniPeg-miniPeg-SSHRTNHKKNNPKKKNKTRGSSGK (SSSCLIDMYGVCHNFDGAYDSSRG[AEEA][AEEA]SSHRTNHKKNNPKKKNKTRGSSGK; not fully specified (bridges); printed as SSSCLIDMYGVCHNFDGAYDSSRG-miniPeg-miniPeg-SSHRTNHKKNNPKKKNKTRGSSGK; cysteine pairing not given here) [SEQ ID NO: 163],54 pmol/cm2

# Molecular target: T1, GDF-7 (R&D SYSTEMS)
# Experiment: GDF-7 capture on peptide-coated sutures; anti-GDF-7 antibody/AP, pNPP read-out; relative EC50; lower limit told of the whole group
# Settings: not given
row,Molecule,EC50 [nM]
1,[code s][code s]GGVGGWALFETLRGKEV[code s][code r][(MP)2]YFRAFRKFVKPFKRAFKGSSGK(Biotin)-NH2 (not fully specified; reading uncertain) [SEQ ID NO 148],> 20
2,B1,> 20
3,B2,> 20
4,[code s][code s]GGVGGWALFETLRGKEV[code s][code r][(MP)2]SWWGFWNGSAAPVWSRGSSGK(Biotin)-NH2 (not fully specified; reading uncertain) [SEQ ID NO 152],> 20
5,B3,> 20
6,[code s][code s]GGVGGWALFETLRGKEV[code s][code r][(AUD)6]SWWGFWNGSAAPVWSRGSSGK(Biotin)-NH2 (not fully specified) [SEQ ID NO 154],> 20
7,[code s][code s]GGVGGWALFETLRGKEV[code s][code r]GSSGYFRAFRKFVKPFKRAFKGSSGK(Biotin)-NH2 (not fully specified) [SEQ ID NO 155],> 20
8,B4,> 20

# Tested on: not listed separately
# Experiment: Critical micelle concentration (methyl orange assay)
# Format: physicochemical
# Settings: pH 7 PBS, A484
# Procedure: Formation of a composition of the invention, and evidence of macromolecular network formation, may be monitored or quantified by any means known in the art. In this example, macromolecular formation was detected using a standard assay for determining critical micelle concentration (“CMC”). In this assay, a solution containing the composition of the invention (in a range of concentrations in pH 7 phosphate buffered saline (“PBS”)) was mixed with a solution of methyl orange (0.04 mM in PBS), and the absorbance of the mixture was measured at 484 nm (A484). CMC is the concentration at which a sharp decrease in absorbance at A484 is observed, a change in the optical properties of methyl orange when trapped in a hydrophobic phase, such as caused by self-association as a macromolecular network (Table 7, “CMC”). Also included in this assay were an assay control peptide having an amino acid sequence of SEQ ID NO:122 (Table 7, “Control”), and compound 119 (a PEGylated peptide, the peptide having an amino acid sequence of SEQ ID NO:122, as described in more detail in Example 6 herein).
row,Molecule,CMC
1,"119: Fmoc-NH-(PEG)27-CO2H covalently coupled to a peptide having the amino acid sequence of SEQ ID NO:122 (PEGylated peptide) (SSHRTNHKKNNPKKKNKTRGSSGK; also: Fmoc-NH-(PEG)27-CO2H covalently coupled, site not given here) [Compound 119]",>>10 μM
2,AUD-AUD-AUD-AUD-SEQ ID NO:122 ([Aun][Aun][Aun][Aun]SSHRTNHKKNNPKKKNKTRGSSGK) [Compound 122],0.123 µM
3,LAU-SEQ ID NO: 122 (Lauroyl-SSHRTNHKKNNPKKKNKTRGSSGK) [Compound 126],0.37 µM
4,MYR-SEQ ID NO: 122 (Myristoyl-SSHRTNHKKNNPKKKNKTRGSSGK) [Compound 125],0.123 µM
5,MYR-linker-SEQ ID NO: 122 ({Myristoyl-linker}-SSHRTNHKKNNPKKKNKTRGSSGK; reading uncertain) [Compound 127],0.123 µM
6,"PALM-PALM-PALM-linker-SEQ ID NO: 122 (SSHRTNHKKNNPKKKNKTRGSSGK; also: three palmitoyl groups, place not given here, linker, place and nature not given here) [Compound 129]",0.123 µM
7,"SSHRTNHKKNNPKKKNKTRGSSGK [SEQ ID NO:122, assay control peptide]",>>10 μM
8,"[MYR]2-K-linker-SEQ ID NO: 122 (SSHRTNHKKNNPKKKNKTRGSSGK; also: lysine bearing two myristoyl groups, place not given here, linker, place and nature not given here) [Compound 128]",0.123 µM

# Source: patent publication US20090246248A1, “COATING COMPOSITIONS HAVING IMPROVED PERFORMANCE” (priority 2008, published 2009)
